Results on eight molecules are retold here after paper doi:10.1101/2023.02.27.530350 (bioRxiv, 2023).

Like-named read-outs stand apart in the source and are kept apart here.

Data set [1] addresses T1, WalR (Staphylococcus aureus, UniProt Q2FKN8 1-233). As to the kind of experiment: EMSA.
The target in data set [2] is T2, VraR (Staphylococcus aureus, UniProt Q2FX09 1-209).
T2 sequence: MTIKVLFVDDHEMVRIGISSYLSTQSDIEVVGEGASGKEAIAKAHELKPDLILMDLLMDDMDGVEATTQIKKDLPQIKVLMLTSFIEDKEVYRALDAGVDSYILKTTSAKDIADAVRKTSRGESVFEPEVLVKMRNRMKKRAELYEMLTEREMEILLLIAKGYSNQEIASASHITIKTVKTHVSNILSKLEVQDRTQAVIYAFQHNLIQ
The data set is described as follows: EMSA. In general terms: A gel shift assay detects complexes by their altered migration in electrophoresis.

The target of data set [3] is T1, WalR. As to the kind of experiment: EMSA. The source holds these as a separate data set.
In data set [4] the target is T1, WalR. The data set is described as follows: EMSA. The source holds these as a separate data set.
Data set [5] deals with T3, WalK-LgBIT (native WalK, sensor histidine kinase) (Staphylococcus aureus, UniProt Q2FKN7 1-608).
T3 sequence (looked up): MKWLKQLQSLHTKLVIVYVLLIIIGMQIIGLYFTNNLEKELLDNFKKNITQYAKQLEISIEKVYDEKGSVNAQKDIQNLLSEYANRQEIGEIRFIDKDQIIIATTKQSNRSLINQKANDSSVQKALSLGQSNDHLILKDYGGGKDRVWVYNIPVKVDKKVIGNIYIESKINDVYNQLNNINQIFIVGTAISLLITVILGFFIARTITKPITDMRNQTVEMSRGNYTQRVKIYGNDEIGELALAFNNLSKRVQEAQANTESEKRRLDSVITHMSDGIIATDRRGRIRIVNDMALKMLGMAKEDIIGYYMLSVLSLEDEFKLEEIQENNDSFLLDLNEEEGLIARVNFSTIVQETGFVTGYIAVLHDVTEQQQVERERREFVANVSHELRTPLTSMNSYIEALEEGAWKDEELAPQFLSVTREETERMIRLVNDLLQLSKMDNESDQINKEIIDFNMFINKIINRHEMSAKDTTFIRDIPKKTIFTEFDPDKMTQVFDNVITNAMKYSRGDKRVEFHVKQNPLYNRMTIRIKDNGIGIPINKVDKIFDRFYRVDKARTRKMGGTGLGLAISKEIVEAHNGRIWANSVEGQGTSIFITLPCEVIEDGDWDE
The data set is described as follows: split reporter.

For data set [6], the target named is T2, VraR. The data set is described as follows: EMSA. The source holds these as a separate data set.

T1 sequence (Q2FKN8 whole entry): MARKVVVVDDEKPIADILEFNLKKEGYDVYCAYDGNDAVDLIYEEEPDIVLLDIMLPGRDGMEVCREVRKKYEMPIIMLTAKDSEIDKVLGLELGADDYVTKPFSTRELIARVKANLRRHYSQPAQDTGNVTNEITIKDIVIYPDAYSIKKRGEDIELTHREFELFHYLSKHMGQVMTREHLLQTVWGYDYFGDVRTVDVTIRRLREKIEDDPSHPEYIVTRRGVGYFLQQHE

B1: ssaA promoter EMSA probe (dsDNA)
DNA 1: AAAACTGAATGTTTCGAAAATAAGTCTGTTACAAATTTGTAATATTACTGAAAATTCTAAATGTATATTT
DNA 2: AAATATACATTTAGAATTTTCAGTAATATTACAAATTTGTAACAGACTTATTTTCGAAACATTCAGTTTT
As for B1, in data set [1], the binding result is on record as “binds”.

B2: ltaS promoter EMSA probe (VraR site) (dsDNA)
DNA 1: CATTAGGAGGAAATTATTTGCATCGGACTCGAGTATGAGCTACGTACCAAATATTATTTCATCATTTCTA
DNA 2: TAGAAATGATGAAATAATATTTGGTACGTAGCTCATACTCGAGTCCGATGCAAATAATTTCCTCCTAATG
Consider B2, for which the binding result in data set [2] was “binds”; in data set [3], “no binding”.

B3: sasD promoter EMSA probe (dsDNA)
DNA 1: CTTTTGTAATCGTATGATAATGTAAATGTAATCAAATTGTAATATAAGGGGACAAGACAATGAAAAAATT
DNA 2: AATTTTTTCATTGTCTTGTCCCCTTATATTACAATTTGATTACATTTACATTATCATACGATTACAAAAG
Take B3: the binding result in data set [4] was “binds”.

B4: WalR_(T101A)-SmBIT (natural protein, Staphylococcus aureus, UniProt Q2FKN8 1-233, looked up)
chain: MARKVVVVDDEKPIADILEFNLKKEGYDVYCAYDGNDAVDLIYEEEPDIVLLDIMLPGRDGMEVCREVRKKYEMPIIMLTAKDSEIDKVLGLELGADDYVAKPFSTRELIARVKANLRRHYSQPAQDTGNVTNEITIKDIVIYPDAYSIKKRGEDIELTHREFELFHYLSKHMGQVMTREHLLQTVWGYDYFGDVRTVDVTIRRLREKIEDDPSHPEYIVTRRGVGYFLQQHE
B4: the “fold change of the maximal level of interaction against native WalK/WalR” value in data set [5] was determined as 1.5 fold.

B5: sle1 promoter EMSA probe (dsDNA)
DNA 1: TTTGATGATACAGTATATGATTTTTTTGTAATCATAATGTCATCAAACATCAACCTATTATACATAATAA
DNA 2: TTATTATGTATAATAGGTTGATGTTTGATGACATTATGATTACAAAAAAATCATATACTGTATCATCAAA
Regarding B5, the binding result in data set [4] is given as “binds”.

B6: isaA promoter EMSA probe (dsDNA)
DNA 1: AAATAACACTTGATATTGTAATGTTTTGTAAAGAAAGTGTAATTTACTGGCTGGTTTTTTGTGATATAGT
DNA 2: ACTATATCACAAAAAACCAGCCAGTAAATTACACTTTCTTTACAAAACATTACAATATCAAGTGTTATTT
In the case of B6, in data set [4], the binding result is given as “binds”.

B7: ltaS promoter EMSA probe (WalR site) (dsDNA)
DNA 1: ATATTTATTAATTGAGCTATGCTTATTATTACAATTTGATTACAAATTTTAAATTTGTTAATTGAATGAT
DNA 2: ATCATTCAATTAACAAATTTAAAATTTGTAATCAAATTGTAATAATAAGCATAGCTCAATTAATAAATAT
As to B7, the binding result in data set [6] and in data set [4] was “binds” each time.

B8: SAUSA300_0602 promoter EMSA probe (dsDNA)
DNA 1: GAAATATAAAAGTAGTAATTATTATTTGTAATATAATTGTAATATGACTGTTGTTTTAGAAATGATTGTT
DNA 2: AACAATCATTTCTAAAACAACAGTCATATTACAATTATATTACAAATAATAATTACTACTTTTATATTTC
As for B8, the binding result in data set [4] was “binds”.
